# In the supplement of paper PMC10724198:
# ± gives the standard deviation of the averaged measurements.
# System: Saccharomyces cerevisiae
# Assay: protein stability index of tFT-peptide fusion (C-terminal peptide) (PSI (0-1 scale)); higher = more stable (slower turnover)
# Conditions: temperature: 30 C
# Experimental: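 MPS profiling in S. cerevisiae of the yeast C-terminome library: the last 12 aa of each annotated ORF are fused to the C-terminus of a sfGFP-mCherry timer, after a GGGS linker. Cells are FACS-sorted into 8 mCherry/sfGFP bins and deep-sequenced. PSI runs from 0 (unstable) to 1 (stable); wild type and das1Δ backgrounds, two technical replicates each.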
# [1] = genetic background: das1 deletion
Sequence,protein stability index [1],protein stability index (genetic background: wild type)
NPGFIVEKRTID [MRPL33 C-terminal 12 aa],0.697 ± 0.035,0.737 ± 0.0098
NPKNLINDVRRT [CVM1 C-terminal 12 aa],0.704 ± 0.011,0.635 ± 0.025
NPPISVSVTGDE [SRT1 C-terminal 12 aa],0.687 ± 0.0084,0.6978 ± 0.0036
NPWGGYSQVQSK [COX5A C-terminal 12 aa],0.728 ± 0.02,0.688 ± 0.018
NQGSDVSFNEED [TOP2 C-terminal 12 aa],0.709 ± 0.02,0.685 ± 0.045
NQIIQARLKDLE [DNF3 C-terminal 12 aa],0.686 ± 0.021,0.6964 ± 0.0035
NQKKKFKMEFRG [SAP30 C-terminal 12 aa],0.6956 ± 0.0027,0.665 ± 0.0075
NRKIARMRHSKR [NUP1 C-terminal 12 aa],0.706 ± 0.022,0.7119 ± 0.007
NRSSKIVSIRED [CPR8 C-terminal 12 aa],0.702 ± 0.03,0.714 ± 0.028
NTDHKAGRSHLQ [PTC2 C-terminal 12 aa],0.713 ± 0.013,0.668 ± 0.038
NTEPPEAPAATN [AFG3 C-terminal 12 aa],0.73 ± 0.032,0.668 ± 0.028
NTGSKKSVPTSS [AQY3 C-terminal 12 aa],0.7037 ± 0.0017,0.732 ± 0.068
NTTHYNDTLLKQ [PHO3 C-terminal 12 aa],0.738 ± 0.0097,0.6619 ± 0.0058
NYLVYHIEEENH [MNN9 C-terminal 12 aa],0.673 ± 0.031,0.645 ± 0.052
PAAWRALTQYIS [PTH1 C-terminal 12 aa],0.7186 ± 0.0024,0.348 ± 0.029
PCALYFKDHTAY [HUA2 C-terminal 12 aa],0.699 ± 0.021,0.7209 ± 0.0011
PDDFEFGDDDFM [HCR1 C-terminal 12 aa],0.712 ± 0.031,0.763 ± 0.041
PEHPGNKRAGSG [YER145C-A C-terminal 12 aa],0.6885 ± 0.00081,0.6979 ± 0.0024
PFDYSDIPAADI [GPI10 C-terminal 12 aa],0.714 ± 0.023,0.698 ± 0.019
PFEDKFEIHDER [OPY2 C-terminal 12 aa],0.74255 ± 0.00063,0.7692 ± 0.00091
PIDPKAFTFDSR [YCL012C C-terminal 12 aa],0.73549 ± 0.00064,0.73 ± 0.016

Sequence,protein stability index [1],protein stability index (genetic background: wild type)
PIQDFIFNLVGE [VTC3 C-terminal 12 aa],0.687 ± 0.0086,0.6981 ± 0.0027
PKSFVPRDIEKK [YGR265W C-terminal 12 aa],0.695 ± 0.018,0.701 ± 0.056
PLFADYLNKNLN [KTI12 C-terminal 12 aa],0.7162 ± 0.0014,0.671 ± 0.014
PLQWLSTWDIAP [PMT6 C-terminal 12 aa],0.787 ± 0.02,0.757 ± 0.021
PLSYDPLGNLIR [TSR3 C-terminal 12 aa],0.7339 ± 0.0027,0.728 ± 0.061
PLTLISLLFAFI [YPS1 C-terminal 12 aa],0.619 ± 0.021,0.612 ± 0.0015
PNEFLRDQSTDI [APL5 C-terminal 12 aa],0.707 ± 0.031,0.66 ± 0.02
PQCGQVLSKGST [YGL132W C-terminal 12 aa],0.703 ± 0.0092,0.69 ± 0.063
PQMARKQRGHIG [SDS23 C-terminal 12 aa],0.678 ± 0.024,0.681 ± 0.0087
PSGNIVMERLDE [UBX3 C-terminal 12 aa],0.6901 ± 0.0013,0.64 ± 0.021
PSIARILEFMQS [SAY1 C-terminal 12 aa],0.729 ± 0.013,0.654 ± 0.09
PVFTASQLRFAW [ESA1 C-terminal 12 aa],0.738 ± 0.018,0.7148 ± 0.0046
PVGAGNEPINPE [URN1 C-terminal 12 aa],0.684 ± 0.013,0.704 ± 0.074
PVTAIALLEARR [YER190C-A C-terminal 12 aa],0.6783 ± 0.005,0.65 ± 0.01
PYNFIQLLHQGL [HOF1 C-terminal 12 aa],0.725 ± 0.011,0.709 ± 0.012
QAYIYIYIHIVN [EST2 C-terminal 12 aa],0.195 ± 0.0094,0.0717 ± 0.017
QEEEEDVATDSE [YRO2 C-terminal 12 aa],0.677 ± 0.014,0.711 ± 0.034
QEIQKKPSQQVS [BIG1 C-terminal 12 aa],0.698 ± 0.0083,0.683 ± 0.066
QFFLAPKFNDEE [POL30 C-terminal 12 aa],0.712 ± 0.032,0.705 ± 0.023
QFQTLNNLYFAQ [IME4 C-terminal 12 aa],0.715 ± 0.02,0.673 ± 0.044
QGHGPVSPSPTK [PTM1 C-terminal 12 aa],0.701 ± 0.022,0.723 ± 0.086

Sequence,protein stability index [1],protein stability index (genetic background: wild type)
QGPRPGNWDQED [CCT8 C-terminal 12 aa],0.7177 ± 0.0017,0.678 ± 0.016
QGYKPNQSDRYY [PIN2 C-terminal 12 aa],0.68 ± 0.013,0.711 ± 0.044
QHYDEYYHELTN [PHO8 C-terminal 12 aa],0.6964 ± 0.0064,0.68262 ± 0.00046
QIEWVDINRVTY [RAD50 C-terminal 12 aa],0.732 ± 0.014,0.735 ± 0.052
QIFSLPAVTYNK [REC102 C-terminal 12 aa],0.693 ± 0.018,0.743 ± 0.055
QIITISNANSHA [MBP1 C-terminal 12 aa],0.705 ± 0.026,0.688 ± 0.038
QKENQYHPRRNQ [YML009W-B C-terminal 12 aa],0.7123 ± 0.0032,0.691 ± 0.039
QLEEELMDMLDD [FCP1 C-terminal 12 aa],0.674 ± 0.01,0.6692 ± 0.0016
QLESDPPPCDDY [RIM8 C-terminal 12 aa],0.7171 ± 0.0053,0.689 ± 0.039
QLKACQEAARQY [MIX17 C-terminal 12 aa],0.675 ± 0.025,0.66 ± 0.031
QLKKSKVSVELE [MAK11 C-terminal 12 aa],0.6803 ± 0.0023,0.687 ± 0.047
QNADEESSSEEE [GCD6 C-terminal 12 aa],0.694 ± 0.011,0.6858 ± 0.0019
QNEQLQMLSNSV [ATG31 C-terminal 12 aa],0.723 ± 0.028,0.673 ± 0.046
QNLDENVWRTPI [SSP1 C-terminal 12 aa],0.692 ± 0.011,0.672 ± 0.032
QPYRSGTLGKRR [AIR2 C-terminal 12 aa],0.674 ± 0.035,0.6998 ± 0.004
QREEALISLNDW [REV3 C-terminal 12 aa],0.726 ± 0.016,0.713 ± 0.025
QRELKKVDGTPI [RCI50 C-terminal 12 aa],0.6851 ± 0.0065,0.741 ± 0.0098
QRIKQNNFLSQL [MRPL37 C-terminal 12 aa],0.7 ± 0.016,0.731 ± 0.05
QSADAAGVVKKH [GCN20 C-terminal 12 aa],0.683 ± 0.011,0.726 ± 0.028
QSLLDSLAKLQK [NAB3 C-terminal 12 aa],0.667 ± 0.009,0.678 ± 0.022
QSRYDNSRANRR [RAT1 C-terminal 12 aa],0.7257 ± 0.0043,0.731 ± 0.099

Sequence,protein stability index [1],protein stability index (genetic background: wild type)
QTNSKPAAVSTN [PLN1 C-terminal 12 aa],0.6745 ± 0.003,0.668 ± 0.02
QTSAKISIRLLY [SER3 C-terminal 12 aa],0.6607 ± 0.00096,0.582 ± 0.0062
QTSAKVSIRLLY [SER33 C-terminal 12 aa],0.659 ± 0.034,0.595 ± 0.0064
RAGRSTLKETPQ [CCT6 C-terminal 12 aa],0.673 ± 0.018,0.692 ± 0.071
RAMNEDETLRNL [ORC1 C-terminal 12 aa],0.6957 ± 0.0042,0.746 ± 0.012
RCGALSEKLVFL [FMT1 C-terminal 12 aa],0.694 ± 0.011,0.697 ± 0.013
RDLPSVLAKYGF [RRG1 C-terminal 12 aa],0.7236 ± 0.0048,0.703 ± 0.04
RDNPILLEDEDP [ULP2 C-terminal 12 aa],0.708 ± 0.022,0.6747 ± 0.00092
REDDDEPASLDF [PRI1 C-terminal 12 aa],0.697 ± 0.0043,0.6533 ± 0.0064
REVLEQEGRRIE [NBL1 C-terminal 12 aa],0.69 ± 0.0073,0.693 ± 0.054
RILKDEIPIGED [BET3 C-terminal 12 aa],0.702 ± 0.017,0.659 ± 0.0079
RIYDFFQSQNWM [ADA2 C-terminal 12 aa],0.7311 ± 0.0031,0.7058 ± 0.0047
RKAAERDNMLTT [CTL1 C-terminal 12 aa],0.704 ± 0.015,0.706 ± 0.0072
RKDEHIVQNIIN [YGR164W C-terminal 12 aa],0.6993 ± 0.0033,0.681 ± 0.029
RKFQPPPGFKRK [SMB1 C-terminal 12 aa],0.724 ± 0.017,0.74 ± 0.047
RLKTGKKKGGPK [RRP14 C-terminal 12 aa],0.6909 ± 0.0054,0.766 ± 0.13
RLPRSFLFLNKK [YOR343C C-terminal 12 aa],0.723 ± 0.01,0.665 ± 0.028
RLVVEPLQGRKH [ISD11 C-terminal 12 aa],0.729 ± 0.011,0.72 ± 0.036
RLYVSRLFISKL [ATP8 C-terminal 12 aa],0.801 ± 0.042,0.671 ± 0.14
RMDEENYEEEFC [UBP11 C-terminal 12 aa],0.716 ± 0.02,0.707 ± 0.034
